Numbering of substitutions follows the chain as printed. Names may count otherwise.
B1: Endo-Rp W278F/N172D/F307Y (protein)
chain: MPSLQLQPDDKLAPVSFALKSMNELRDWTPDEKIKFNVSSVALQPRVKNALKPQLLLTHDMAGGYKEDKNIQGNNYKDIYNIQYWHLADTFVYFSHERVSIPPVNWTNACHRNGVKCLGTFLVEGNNQMHEMEALLHGPPLLNNTDDPMRLWSPYYADQLVAIAKHYGFDGWLFDIECEFFPFPTNPKFKAEELAKFLHYFKEKLHNEIPGSQLIWYDSMTNEGEIHWQNQLTWKNELFFKNTDGIFLNYWWKKEYPEMARRVAEGIGRSGLEVYFGTDVFGRHTYGGGGFKSYKGVKTAYSAMTSSALYGMAWTYEHFEKSEFEKMDRLFWCGGKYSDYPPPPPKNPDDEKEVESDDSEDELMYGHKKGIADTVESIPVPGTDWFVTNFDRGFGNRFYYRGKRLLSQPWSHLSHQAILPNKSYRNPEIYPTDQNIKITSSLDCDHGAFLGGTSLIIKGQRFNHRESHDVETEISIPLYKLSLDASKGCSLRYIYRTLLMKDVKLTVACHFSLKTNDSVNFFKVWQPDENFSFEYDDGMRATVTTENSTESRCFLLRTTEEDTGENDWITKTINVPAVPEGSQLYITRLEVSVVLDTAGLVGLVNQVIACLGYISIIPTINSGIKTDSSRIIQDLFWKDQKYTKIGKESLDDIAQEEVHRYYGTLNWENTANVVNAWEEIDYYNVFYKESDDSATRIFLGTAFCNQFRVSGLDIILSKLPKIVIEAVNKEGYISSSGSIDLSLN
B2: Endo-Rp W278F/N172D/A310D (protein)
chain: B1 chain with Y310F, A313D
B3: Endo-Rp W278F/N172D/F307H (protein)
chain: B1 chain with Y310H
B4: Endo-Rp Y214F/F307Y/L306I (protein)
chain: B1 chain with D175N, Y217F, F281W, L309I

Columns and labels:
(Fucα1,6)GlcNAc-mAb2 [1] = experiment: One-pot method with various sugar chain donors, Endo-Rp N172H and Endo-Si D241M/Q311L; type: biochemical; details: donor 50 eq., Endo-Rp N172H 8 μg, Endo-Si D241M/Q311L 10 μg, 28° C., pH 7.5
Procedure: Transglycosylation activity was evaluated as follows. […] When SGP was used as a donor, the transglycosylation rate was calculated in accordance with the formula for computation described in Example 5.

(Fucα1,6)GlcNAc-mAb2 [2] = experiment: One-pot method: Endo-Rp mutant enzymes (enzyme A) combined with Endo-Si D241Q, SGP donor; type: biochemical; details: Endo-Rp mutant enzyme 8 μg with Endo-Si D241Q 5 μg, SGP (50 eq.), 28° C., pH 7.5
Procedure: Using Endo-Rp, which is known to transfer a sugar chain from a sugar chain donor, SGP, to a GlcNAc derivative, as a representative of enzyme A, the property of enzyme A that can be used in combination with Endo-Si was investigated.
The transglycosylation activity on an antibody by the one-pot method was evaluated as follows. A 50 mM (sodium) phosphorate buffer (pH 7.5) solution (17 μL) containing (Fucα1,6)GlcNAc-mAb2 (0.5 mg), SGP (0.485 mg (50 eq.)), Endo-M N175Q (manufactured by Tokyo Kasei Kogyo Co., Ltd.) (2.5 mU) or each of various Endo-Rp mutant enzymes (8 μg) and Endo-Si D241Q (5 μg) was prepared and incubated at 28° C. A sample was taken from each of the reaction solutions at 2, 4, 6, 24, and 48 hours after initiation of the reaction and analyzed for protein by a fully automated electrophoresis system as mentioned above. In the chromatogram obtained, the transglycosylation rate was calculated in accordance with the formula for computation described in Example 5.

| Molecule | Transglycosylation rate (%) ((Fucα1,6)GlcNAc-mAb2 [1]; 2 h) | Transglycosylation rate (%) ((Fucα1,6)GlcNAc-mAb2 [1]; 4 h) | Transglycosylation rate (%) ((Fucα1,6)GlcNAc-mAb2 [1]; 6 h) | Transglycosylation rate (%) ((Fucα1,6)GlcNAc-mAb2 [1]; 24 h) | Transglycosylation rate (%) ((Fucα1,6)GlcNAc-mAb2 [1]; 48 h) | Change in transglycosylation rate (%) with time ((Fucα1,6)GlcNAc-mAb2 [2]; 2 h) [%] | Change in transglycosylation rate (%) with time ((Fucα1,6)GlcNAc-mAb2 [2]; 4 h) [%] | Change in transglycosylation rate (%) with time ((Fucα1,6)GlcNAc-mAb2 [2]; 6 h) [%] | Change in transglycosylation rate (%) with time ((Fucα1,6)GlcNAc-mAb2 [2]; 24 h) [%] | Change in transglycosylation rate (%) with time ((Fucα1,6)GlcNAc-mAb2 [2]; 48 h) [%] |
| --- | --- | --- | --- | --- | --- | --- | --- | --- | --- | --- |
| sialyl glycopeptide [SGP] | 3.8 | 5.0 | 11.2 | 53.5 | 89.7 | – | – | – | – | – |
| B1 | – | – | – | – | – | 12.0 | 19.0 | 24.9 | 76.5 | 93.1 |
| B2 | – | – | – | – | – | 0.0 | 0.0 | 0.0 | 8.5 | 17.0 |
| B3 | – | – | – | – | – | 8.8 | 13.4 | 17.7 | 66.1 | 91.1 |
| B4 | – | – | – | – | – | 34.5 | 53.0 | 63.4 | 87.4 | 88.8 |
